From patent US20250368744A1 (CONCEPT TO MEDICINE BIOTECH, published 2025) come the findings set out here.

This assay addresses T1, human C-C motif chemokine receptor 8 (CCR8) (human, UniProt P51685 1-355).
T1 construct: whole, on cells; also called human CCR8; hCCR8
The assay can be described thus: FACS (MFI-PE) on CHO-K1 hCCR8 cells, bars at five doses. On the procedure: PE Goat anti-Human IgG Fc Secondary Antibody (eBioscience™, Invitrogen) was added to each well and incubated at 4° C. for 30 mins. Samples were washed twice with FACS buffer. The mean florescence intensity (MFI) of PE was evaluated by MACSQuant Analyzer 16.

T1 sequence (P51685 whole entry): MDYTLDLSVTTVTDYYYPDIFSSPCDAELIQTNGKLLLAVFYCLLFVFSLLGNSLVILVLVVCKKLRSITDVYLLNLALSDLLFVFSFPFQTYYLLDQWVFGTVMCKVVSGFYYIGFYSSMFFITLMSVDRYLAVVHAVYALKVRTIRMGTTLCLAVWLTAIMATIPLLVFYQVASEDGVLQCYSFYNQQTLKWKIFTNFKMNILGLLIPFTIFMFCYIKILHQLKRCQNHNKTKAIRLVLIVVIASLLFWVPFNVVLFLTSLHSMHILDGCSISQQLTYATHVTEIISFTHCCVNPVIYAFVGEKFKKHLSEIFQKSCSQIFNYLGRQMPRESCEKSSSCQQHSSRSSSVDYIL

B1: Hu195H8D10-7 (antibody, V domains shown)
VH: EVQLVESGGGLVQPGGSLRLSCAASGFNFNTYVMNWVRQAPGKGLEWVARIRTKSNNYATYYADSVKDRFTISRDDSKNSLYLQMNSLKTEDTAVYYCVSGTITRLGGGLDYWGQGTLVTVSS
VL: DIVMTQSPLSLPVTPGEPASISCRSSKRLLHSNGNTYLYWYLQKPGQSPQLLIYRMSNLASGVPDRFSGSGSGTAFTLKISRVEAEDVGVYYCMQHLEYPFTFGGGTKLEIK
notes: humanized
Consider B1, for which the binding result is given as “binds”.

B2: Hu195H8D10-5 (antibody, V domains shown)
VH: EVQLVESGGGLVQPGGSLRLSCAASGFNFNTYVMNWVRQAPGKGLEWVARIRTKSNNYATYYADSVKDRFTISRDDSKNSLYLQMNSLKTEDTAVYYCVSGTITRLGGGLDYWGQGTLVTVSS
VL: DIVMTQSPLSLPVTPGEPASISCRSSKRLLHSNGNTYLYWYLQKPGQSPQLLIYRMSNLASGVPDRFSGSGSGTDFTLKISRVEAEDVGVYYCMQHLEYPFTFGGGTKLEIK
notes: humanized
As for B2, the binding result is given as “binds”.

B3: Hu195H8D10-16 (antibody, V domains shown)
VH: EVQLVESGGGLVQPGGSLRLSCAASGFNFNTYVMNWVRQAPGKGLEWVARIRTKSNNYATYYADSVKDRFTISRDDSESSLYLQMNSLKTEDTAMYYCVSGTITRLGGGLDYWGQGTLVTVSS
VL: DIVMTQSPLSLPVTPGEPASISCRSSKRLLHSNGNTYLYWFLQKPGQSPQLLIYRMSNLASGVPDRFSGSGSGTAFTLKISRVEAEDVGVYYCMQHLEYPFTFGGGTKLEIK
notes: humanized
As for B3, the binding result is on record as “binds”.

B4: Hu200C9B9-16 (antibody, V domains shown)
VH: EVQLVESGGGLVQPGGSLRLSCAASGFSFNTYVMNWVRQAPGKGLNWVARIRTKSNNYATFYVDSVKDRFTISRDDSENSLYLQMNSLKTEDTAVYYCVSGTITRLGAGLDYWGQGTLVTVSS
VL: DIVMTQSPLSLPVTPGEPASISCRSSKSLLHSNGNTYLYWFLQKPGQSPQLLIYRMSNLASGVPDRFSGSGSGTAFTLKISRVEAEDVGVYYCMQHLEYPFTFGGGTKLEIK
notes: humanized
In the case of B4, the binding result is recorded as “binds”.

B5: Hu195H8D10-2 (antibody, V domains shown)
VH: EVQLVESGGGLVQPGGSLRLSCAASGFNFNTYVMNWVRQAPGKGLEWVGRIRTKSNNYATYYADSVKDRFTISRDDSKNSLYLQMNSLKTEDTAVYYCARGTITRLGGGLDYWGQGTLVTVSS
VL: DIVMTQSPLSLPVTPGEPASISCRSSKRLLHSNGNTYLYWFLQKPGQSPQLLIYRMSNLASGVPDRFSGSGSGTDFTLKISRVEAEDVGVYYCMQHLEYPFTFGGGTKLEIK
notes: humanized
With B5, the binding result is “binds”.

B6: Hu195H8D10-6 (antibody, V domains shown)
VH: EVQLVESGGGLVQPGGSLRLSCAASGFNFNTYVMNWVRQAPGKGLEWVARIRTKSNNYATYYADSVKDRFTISRDDSKNSLYLQMNSLKTEDTAVYYCVSGTITRLGGGLDYWGQGTLVTVSS
VL: DIVMTQSPLSLPVTPGEPASISCRSSKRLLHSNGNTYLYWFLQKPGQSPQLLIYRMSNLASGVPDRFSGSGSGTDFTLKISRVEAEDVGVYYCMQHLEYPFTFGGGTKLEIK
notes: humanized
In the case of B6, the binding result is “binds”.

B7: Hu200C9B9-13 (antibody, V domains shown)
VH: EVQLVESGGGLVQPGGSLRLSCAASGFSFNTYVMNWVRQAPGKGLNWVARIRTKSNNYATFYVDSVKDRFTISRDDSENSLYLQMNSLKTEDTAVYYCVSGTITRLGAGLDYWGQGTLVTVSS
VL: DIVMTQSPLSLPVTPGEPASISCRSSKSLLHSNGNTYLYWYLQKPGQSPQLLIYRMSNLASGVPDRFSGSGSGTDFTLKISRVEAEDVGVYYCMQHLEYPFTFGGGTKLEIK
notes: humanized
For the molecule B7, the binding result was “binds”.

B8: Hu200C9B9-9 (antibody, V domains shown)
VH: EVQLVESGGGLVQPGGSLRLSCAASGFSFNTYVMNWVRQAPGKGLNWVARIRTKSNNYATFYVDSVKDRFTISRDDSKNSLYLQMNSLKTEDTAVYYCVSGTITRLGAGLDYWGQGTLVTVSS
VL: DIVMTQSPLSLPVTPGEPASISCRSSKSLLHSNGNTYLYWYLQKPGQSPQLLIYRMSNLASGVPDRFSGSGSGTDFTLKISRVEAEDVGVYYCMQHLEYPFTFGGGTKLEIK
notes: humanized
As to B8, the binding result is listed as “binds”.

B9: Hu195H8D10-8 (antibody, V domains shown)
VH: EVQLVESGGGLVQPGGSLRLSCAASGFNFNTYVMNWVRQAPGKGLEWVARIRTKSNNYATYYADSVKDRFTISRDDSKNSLYLQMNSLKTEDTAVYYCVSGTITRLGGGLDYWGQGTLVTVSS
VL: DIVMTQSPLSLPVTPGEPASISCRSSKRLLHSNGNTYLYWFLQKPGQSPQLLIYRMSNLASGVPDRFSGSGSGTAFTLKISRVEAEDVGVYYCMQHLEYPFTFGGGTKLEIK
notes: humanized
As for B9, the binding result is “binds”.

B10: Hu195H8D10-3 (antibody, V domains shown)
VH: EVQLVESGGGLVQPGGSLRLSCAASGFNFNTYVMNWVRQAPGKGLEWVGRIRTKSNNYATYYADSVKDRFTISRDDSKNSLYLQMNSLKTEDTAVYYCARGTITRLGGGLDYWGQGTLVTVSS
VL: DIVMTQSPLSLPVTPGEPASISCRSSKRLLHSNGNTYLYWYLQKPGQSPQLLIYRMSNLASGVPDRFSGSGSGTAFTLKISRVEAEDVGVYYCMQHLEYPFTFGGGTKLEIK
notes: humanized
For B10, the binding result was “binds”.

B11: Hu200C9B9-6 (antibody, V domains shown)
VH: EVQLVESGGGLVQPGGSLRLSCAASGFSFNTYVMNWVRQAPGKGLEWVARIRTKSNNYATFYVDSVKDRFTISRDDSKNSLYLQMNSLKTEDTAVYYCVSGTITRLGAGLDYWGQGTLVTVSS
VL: DIVMTQSPLSLPVTPGEPASISCRSSKSLLHSNGNTYLYWFLQKPGQSPQLLIYRMSNLASGVPDRFSGSGSGTDFTLKISRVEAEDVGVYYCMQHLEYPFTFGGGTKLEIK
notes: humanized
B11: the binding result is listed as “binds”.

B12: Hu195H8D10-1 (antibody, V domains shown)
VH: EVQLVESGGGLVQPGGSLRLSCAASGFNFNTYVMNWVRQAPGKGLEWVGRIRTKSNNYATYYADSVKDRFTISRDDSKNSLYLQMNSLKTEDTAVYYCARGTITRLGGGLDYWGQGTLVTVSS
VL: DIVMTQSPLSLPVTPGEPASISCRSSKRLLHSNGNTYLYWYLQKPGQSPQLLIYRMSNLASGVPDRFSGSGSGTDFTLKISRVEAEDVGVYYCMQHLEYPFTFGGGTKLEIK
notes: humanized
With B12, the binding result is reported as “binds”.

B13: Hu200C9B9-4 (antibody, V domains shown)
VH: EVQLVESGGGLVQPGGSLRLSCAASGFSFNTYVMNWVRQAPGKGLEWVGRIRTKSNNYATFYVDSVKDRFTISRDDSKNSLYLQMNSLKTEDTAVYYCARGTITRLGAGLDYWGQGTLVTVSS
VL: DIVMTQSPLSLPVTPGEPASISCRSSKSLLHSNGNTYLYWFLQKPGQSPQLLIYRMSNLASGVPDRFSGSGSGTAFTLKISRVEAEDVGVYYCMQHLEYPFTFGGGTKLEIK
notes: humanized
For the molecule B13, the binding result was “binds”.

B14: Hu200C9B9-3 (antibody, V domains shown)
VH: EVQLVESGGGLVQPGGSLRLSCAASGFSFNTYVMNWVRQAPGKGLEWVGRIRTKSNNYATFYVDSVKDRFTISRDDSKNSLYLQMNSLKTEDTAVYYCARGTITRLGAGLDYWGQGTLVTVSS
VL: DIVMTQSPLSLPVTPGEPASISCRSSKSLLHSNGNTYLYWYLQKPGQSPQLLIYRMSNLASGVPDRFSGSGSGTAFTLKISRVEAEDVGVYYCMQHLEYPFTFGGGTKLEIK
notes: humanized
In the case of B14, the binding result is reported as “binds”.

B15: Hu200C9B9-7 (antibody, V domains shown)
VH: EVQLVESGGGLVQPGGSLRLSCAASGFSFNTYVMNWVRQAPGKGLEWVARIRTKSNNYATFYVDSVKDRFTISRDDSKNSLYLQMNSLKTEDTAVYYCVSGTITRLGAGLDYWGQGTLVTVSS
VL: DIVMTQSPLSLPVTPGEPASISCRSSKSLLHSNGNTYLYWYLQKPGQSPQLLIYRMSNLASGVPDRFSGSGSGTAFTLKISRVEAEDVGVYYCMQHLEYPFTFGGGTKLEIK
notes: humanized
For the molecule B15, the binding result is listed as “binds”.

B16: Hu195H8D10-9 (antibody, V domains shown)
VH: EVQLVESGGGLVQPGGSLRLSCAASGFNFNTYVMNWVRQAPGKGLEWVARIRTKSNNYATYYADSVKDRFTISRDDSKSSLYLQMNSLKTEDTAVYYCVSGTITRLGGGLDYWGQGTLVTVSS
VL: DIVMTQSPLSLPVTPGEPASISCRSSKRLLHSNGNTYLYWYLQKPGQSPQLLIYRMSNLASGVPDRFSGSGSGTDFTLKISRVEAEDVGVYYCMQHLEYPFTFGGGTKLEIK
notes: humanized
On to B16, for which the binding result was “binds”.

B17: Hu195H8D10-11 (antibody, V domains shown)
VH: EVQLVESGGGLVQPGGSLRLSCAASGFNFNTYVMNWVRQAPGKGLEWVARIRTKSNNYATYYADSVKDRFTISRDDSKSSLYLQMNSLKTEDTAVYYCVSGTITRLGGGLDYWGQGTLVTVSS
VL: DIVMTQSPLSLPVTPGEPASISCRSSKRLLHSNGNTYLYWYLQKPGQSPQLLIYRMSNLASGVPDRFSGSGSGTAFTLKISRVEAEDVGVYYCMQHLEYPFTFGGGTKLEIK
notes: humanized
On to B17, for which the binding result was “binds”.

B18: Hu195H8D10-10 (antibody, V domains shown)
VH: EVQLVESGGGLVQPGGSLRLSCAASGFNFNTYVMNWVRQAPGKGLEWVARIRTKSNNYATYYADSVKDRFTISRDDSKSSLYLQMNSLKTEDTAVYYCVSGTITRLGGGLDYWGQGTLVTVSS
VL: DIVMTQSPLSLPVTPGEPASISCRSSKRLLHSNGNTYLYWFLQKPGQSPQLLIYRMSNLASGVPDRFSGSGSGTDFTLKISRVEAEDVGVYYCMQHLEYPFTFGGGTKLEIK
notes: humanized
On to B18, for which the binding result is reported as “binds”.

B19: Hu195H8D10-4 (antibody, V domains shown)
VH: EVQLVESGGGLVQPGGSLRLSCAASGFNFNTYVMNWVRQAPGKGLEWVGRIRTKSNNYATYYADSVKDRFTISRDDSKNSLYLQMNSLKTEDTAVYYCARGTITRLGGGLDYWGQGTLVTVSS
VL: DIVMTQSPLSLPVTPGEPASISCRSSKRLLHSNGNTYLYWFLQKPGQSPQLLIYRMSNLASGVPDRFSGSGSGTAFTLKISRVEAEDVGVYYCMQHLEYPFTFGGGTKLEIK
notes: humanized
As to B19, the binding result was “binds”.

B20: Hu195H8D10-15 (antibody, V domains shown)
VH: EVQLVESGGGLVQPGGSLRLSCAASGFNFNTYVMNWVRQAPGKGLEWVARIRTKSNNYATYYADSVKDRFTISRDDSESSLYLQMNSLKTEDTAMYYCVSGTITRLGGGLDYWGQGTLVTVSS
VL: DIVMTQSPLSLPVTPGEPASISCRSSKRLLHSNGNTYLYWYLQKPGQSPQLLIYRMSNLASGVPDRFSGSGSGTAFTLKISRVEAEDVGVYYCMQHLEYPFTFGGGTKLEIK
notes: humanized
As to B20, the binding result is reported as “binds”.
